Measured values from patent publication US6028053A, “Peptide inhibitors of a phosphotyrosine-binding domain containing protein” (Mount Sinai Hospital Corporation, priority 1998, dated 2000).
One block for each molecule: values may come before it. Square brackets hold non-standard residues; d marks the D form. Ends that are not written are not given here. pY = N[C@@H](Cc1ccc(OP(=O)(O)O)cc1)C(=O)O

Key:
[1] = molecular target: GST-Shc PTB domain fusion protein (human) (UniProt P29353); assay: SPR (Biacore) competition, Table 1
[2] = molecular target: GST-Shc PTB domain fusion protein (human) (UniProt P29353); assay: not stated in Table 2; the same number as the IC50 of Table 1
[3] = molecular target: GST-Shc PTB domain fusion protein (human) (UniProt P29353); assay: competition with EGF-R for GST-ShcB beads, dose response, anti-phospho-Tyr blot
[4] = molecular target: GST-Shc PTB domain fusion protein (human) (UniProt P29353); assay: not stated in Table 2; presumably as the IC50 of Table 1
[5] = molecular target: GST-Shc PTB domain fusion protein (human) (UniProt P29353); assay: SPR (Biacore) competition, Table 1; remark: listed apart in the source

GST-Shc PTB domain fusion protein (human), sequence (P29353 111-319 limits assumed): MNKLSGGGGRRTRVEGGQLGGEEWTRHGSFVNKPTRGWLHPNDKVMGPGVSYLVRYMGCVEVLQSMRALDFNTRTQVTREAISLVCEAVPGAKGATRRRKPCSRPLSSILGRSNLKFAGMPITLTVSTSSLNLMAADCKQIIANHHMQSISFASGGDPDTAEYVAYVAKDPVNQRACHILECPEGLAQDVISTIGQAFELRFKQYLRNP

fold increase of the affinity against the peptide with Ala at -2 [1]: 10 fold
value printed beside the sequence without a heading [2]: 175 nM
Molecule: Wt NGF receptor phosphopeptide His-Ile-Ile-Glu-Asn-Pro-Gln-P.Tyr-Phe-Ser-Asp

percent inhibition at 100 µM [3]: 50%
B1: C-1, Cyclo-(IENPQpYFSPG) (peptide)
peptide: cyclo(IENPQ[pY]FSPG)
SMILES: CC[C@H](C)[C@@H]1NC(=O)CNC(=O)[C@@H]2CCCN2C(=O)[C@H](CO)NC(=O)[C@H](Cc2ccccc2)NC(=O)[C@H](Cc2ccc(OP(=O)(O)O)cc2)NC(=O)[C@H](CCC(N)=O)NC(=O)[C@@H]2CCCN2C(=O)[C@H](CC(N)=O)NC(=O)[C@H](CCC(=O)O)NC1=O

value printed beside the sequence without a heading [4]: 4 µM
Molecule: IENPQ[pY]FSD [Trk wild type truncated phosphopeptide IENPQpYFSD]

fold lower affinity against a phosphopeptide with an Ile at either position -6 or -5 [5]: 3 fold
Molecule: HAAENPQ[pY]FSD [Ala-6, Ala-5 NGF receptor peptide H-A-A-E-N-P-Q-p.Y-F-S-D]
